Test results from patent US20130040894A1, “INHIBITION OR ACTIVATION OF SERINE/THREONINE ULK3 KINASE ACTIVITY” (TALLINN UNIVERSITY OF TECHNOLOGY, priority 2009, published 2013).

Columns and labels:
[1] = molecular target: T1, His-tagged GLI1 fragment, amino acids 426-754
T1 chain: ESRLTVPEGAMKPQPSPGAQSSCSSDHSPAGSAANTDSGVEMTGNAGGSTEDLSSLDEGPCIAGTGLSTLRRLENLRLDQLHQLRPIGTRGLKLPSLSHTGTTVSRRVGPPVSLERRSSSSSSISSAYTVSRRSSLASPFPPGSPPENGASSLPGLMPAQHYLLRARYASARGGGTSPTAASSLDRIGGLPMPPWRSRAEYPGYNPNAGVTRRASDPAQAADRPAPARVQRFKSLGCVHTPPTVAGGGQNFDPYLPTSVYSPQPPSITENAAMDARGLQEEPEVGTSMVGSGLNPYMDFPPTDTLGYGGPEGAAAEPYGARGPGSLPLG

FLAG-tagged GLI2, P10070 = molecular target: T2, FLAG-tagged GLI2, P10070
T2 chain: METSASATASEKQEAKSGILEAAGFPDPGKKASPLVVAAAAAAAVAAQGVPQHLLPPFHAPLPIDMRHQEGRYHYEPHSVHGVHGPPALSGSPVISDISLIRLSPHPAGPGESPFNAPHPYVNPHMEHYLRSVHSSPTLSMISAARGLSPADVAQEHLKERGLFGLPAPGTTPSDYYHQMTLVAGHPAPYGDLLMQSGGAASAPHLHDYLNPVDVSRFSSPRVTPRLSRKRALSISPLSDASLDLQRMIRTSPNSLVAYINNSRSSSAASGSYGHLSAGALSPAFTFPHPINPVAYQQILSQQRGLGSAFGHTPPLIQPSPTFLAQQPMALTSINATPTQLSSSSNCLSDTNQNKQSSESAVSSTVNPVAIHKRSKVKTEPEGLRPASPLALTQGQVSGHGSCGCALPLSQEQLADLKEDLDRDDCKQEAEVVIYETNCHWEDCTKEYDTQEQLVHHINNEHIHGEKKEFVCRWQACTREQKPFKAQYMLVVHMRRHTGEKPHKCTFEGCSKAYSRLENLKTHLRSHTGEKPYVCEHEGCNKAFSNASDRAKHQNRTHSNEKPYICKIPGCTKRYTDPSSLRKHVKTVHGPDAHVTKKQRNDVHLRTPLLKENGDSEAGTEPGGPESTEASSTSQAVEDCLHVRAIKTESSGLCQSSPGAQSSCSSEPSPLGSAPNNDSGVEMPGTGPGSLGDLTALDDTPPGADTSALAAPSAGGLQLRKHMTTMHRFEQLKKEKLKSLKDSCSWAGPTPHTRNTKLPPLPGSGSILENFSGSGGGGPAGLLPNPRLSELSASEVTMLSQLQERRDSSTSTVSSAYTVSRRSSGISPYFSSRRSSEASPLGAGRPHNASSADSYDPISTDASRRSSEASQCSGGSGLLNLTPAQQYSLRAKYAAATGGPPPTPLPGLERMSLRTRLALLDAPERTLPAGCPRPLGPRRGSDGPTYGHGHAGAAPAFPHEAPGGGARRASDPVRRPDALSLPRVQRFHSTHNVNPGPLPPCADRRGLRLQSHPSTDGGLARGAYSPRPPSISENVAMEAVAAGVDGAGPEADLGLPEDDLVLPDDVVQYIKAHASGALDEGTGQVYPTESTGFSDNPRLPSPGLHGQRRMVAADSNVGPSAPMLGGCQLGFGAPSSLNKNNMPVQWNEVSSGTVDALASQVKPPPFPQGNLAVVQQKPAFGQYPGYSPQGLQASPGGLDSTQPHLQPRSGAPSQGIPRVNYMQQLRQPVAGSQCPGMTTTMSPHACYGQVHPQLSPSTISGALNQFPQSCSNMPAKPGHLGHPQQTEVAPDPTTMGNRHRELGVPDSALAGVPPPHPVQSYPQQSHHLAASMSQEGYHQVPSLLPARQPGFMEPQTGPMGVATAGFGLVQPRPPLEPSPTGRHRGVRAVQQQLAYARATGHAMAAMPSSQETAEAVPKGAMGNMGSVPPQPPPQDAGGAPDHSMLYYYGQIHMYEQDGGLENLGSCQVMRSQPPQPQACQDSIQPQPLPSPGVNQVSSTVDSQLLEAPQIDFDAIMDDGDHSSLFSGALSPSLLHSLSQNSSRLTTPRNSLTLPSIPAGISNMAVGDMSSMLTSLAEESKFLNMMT

GLI3 = test: In vitro kinase assay, phosphorylation of GLI3; type: biochemical; conditions: FLAG-tagged GLI3 immunoprecipitated from HEK293 cells
Procedure: HEK293 cells were transfected with 13.5 μg of FLAG-tagged constructs expressed GLI1, GLI2, GLI3, ULK3, ULK3(K44R), ULK3(K139R) or FLAG-CMV-4 empty vector on 10 cm plates. The cells were lysed with 0.5 ml of Lysis Buffer (50 mM Tris HCl, pH 7.4, 150 mM NaCl, 1 mM EDTA, 1% Triton X-100) containing protease inhibitor cocktail (PIC) (Roche Applied Science). The lysates were centrifuged for 15 min at 4° C. and 15000 g, and the supernatants were used for immunoprecipitation (IP). IP was performed using anti-FLAG-M2 affinity gel (Sigma-Aldrich) in batch format according to the manufacture's instructions. Immune complexes were washed three times with 500 μl of Kinase Buffer (KB) (50 mM HEPES, pH 7.4, 20 mM MgCl2, 25 μM ATP) and resuspended in 12.5 μl of KB. One fifth of the immuno-complexes was subjected to WB and the rest was used for the kinase assay.
Kinase reactions were carried out in KB in a total volume of 20 μl of in the presence of 1 μCi of [γ-^32P]ATP per reaction. We used 1 μl of the immunoprecipitated ULK3, ULK3(K44R) or ULK3(K139R) mixed with 5 μl of the GLI-M2 immunocomplexes or 5 μl of bacterially expressed and purified His-GLI1 fragments. Kinase reactions were held at 30° C. for 30 min and terminated by adding of 5 μl of 4× Laemmli Sample Buffer. Proteins were resolved by SDS-PAGE. […]

B1: FLAG-tagged wild-type ULK3 (human serine/threonine kinase ULK3) (protein)
chain: MAGPGWGPPRLDGFILTERLGSGTYATVYKAYAKKDTREVVAIKCVAKKSLNKASVENLLTEIEILKGIRHPHIVQLKDFQWDSDNIYLIMEFCAGGDLSRFIHTRRILPEKVARVFMQQLASALQFLHERNISHLDLKPQNILLSSLEKPHLKLADFGFAQHMSPWDEKHVLRGSPLYMAPEMVCQRQYDARVDLWSMGVILYEALFGQPPFASRSFSELEEKIRSNRVIELPLRPLLSRDCRDLLQRLLERDPSRRISFQDFFAHPWVDLEHMPSGESLGRATALVVQAVKKDQEGDSAAALSLYCKALDFFVPALHYEVDAQRKEAIKAKVGQYVSRAEELKAIVSSSNQALLRQGTSARDLLREMARDKPRLLAALEVASAAMAKEEAAGGEQDALDLYQHSLGELLLLLAAEPPGRRRELLHTEVQNLMARAEYLKEQVKMRESRWEADTLDKEGLSESVRSSCTLQ
in vitro kinase assay, phosphorylation of a His-tagged GLI1 fragment [1]: Central part of GLI1 (amino acids 426-754) was not phosphorylated by ULK3
in vitro kinase assay, phosphorylation signal (32P autoradiography) (FLAG-tagged GLI2, P10070): The strongest phosphorylation signal was detected in the case of GLI2

B2: ULK3: human serine/threonine kinase, 472 amino acids (SEQ ID NO: 1), overexpressed from cloned cDNA or immunopurified FLAG-tagged (protein, listed as Homo sapiens)
chain: B1 chain
modifications: PEPTIDE (1)..(472) ULK3
phosphorylation of GLI3 (GLI3): significantly lower intensity as compared to GLI2
